Assay results taken from the supplement of paper PMC9170038.

System: MS2 coat protein
Experiment: apparent KD of MS2 coat protein; designed switch direction (-1 OFF switch, 1 ON switch): -1; higher = weaker reporter binding
Summary of the method: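 The reported apparent KD is a per-design median over clusters, from curve fits of normalised cluster fluorescence. Protein titrations used SNAP-549-labelled MS2 coat protein, doubled from 0.7 or 1.5 nM to 3 µM, in Tris-HCl pH 7.5 buffer with KCl, MgCl2, BSA, DTT, tRNA and Tween-20, with no input, 200 uM small-molecule ligand, or an oligonucleotide input. The RNA switches were transcribed on Illumina chips by stalled E. coli RNA polymerase.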

[1] = Eterna round: R95, input ligand: FMN 200 uM
[2] = Eterna round: R95, input ligand: microRNA oligo, concentration not stated
[3] = Eterna round: R95, input ligand: none
[4] = input ligand: microRNA oligo, concentration not stated

Sequence	apparent KD of MS2 coat protein (input ligand: FMN 200 uM)	apparent KD of MS2 coat protein (input ligand: none)	other results
UAUGGUAAAGUCAGGAUAUACGUGCAGAUUUCUAGGUAGAAGGGACAUGAGGAUCACCCAUGUAUGGUAGUGUU [Ex4 #45] (Eterna round: R97, puzzle: Brourd's mod of Exclusion 4)	75.5 nM	81.2 nM	
UAUGGUUAAGUCAGGAUAUACAAAUAGAAAUCUGAGUAGAAGGGACAUGAGGAUCACCCAUGUAUGGUAGUGUU [Ex4 #57] (Eterna round: R97, puzzle: Brourd's mod of Exclusion 4)	79 nM	74.3 nM	
UAUGGUUAAGUCAGGAUAUGCACGCAGAUUACAAUGCAGAAGGGACAUGAGGAUCACCCAUGUACACUCGUGUU [Ex4 #80] (Eterna round: R97, puzzle: Brourd's mod of Exclusion 4)	40.7 nM	31.8 nM	
UAUGGUUAAGUCAGGAUAUGCUCGUAGAGGUCUAUGCAGAAGGGACAUGAGGAUCACCCAUGUAAAGUCGUGUU [Ex4 #70] (Eterna round: R97, puzzle: Brourd's mod of Exclusion 4)	51.5 nM	25.1 nM	
UAUGUCGACAAGGAUAUUUGCGCAAACGACCACAAAGAAGGUGUCACAUGAGGAUCACCCAUGUGGUGUGGGCC [Eternabot (L1) Solution 83] (Eterna round: R97, puzzle: Exclusion 6)	202 nM	209 nM	
UAUUAGCAAGCAAAUGGGUACAUGAGGAUCACCCAUGUGCUCGUCUUAUAAGGUACUGUGACGAAAGUCACGGUACC [Eli 91 v35] (Eterna round: R97, puzzle: Sensor, turn-off variant 1)	24.6 nM	22.5 nM	
UAUUAGCAAGCAACUGGGUACAUGAGGAUCACCCAUGUGCUCGUCUUAUAAGGUACUGUUACGAAAGUCACGGUACC [mod--Eli12] (Eterna round: R97, puzzle: Sensor, turn-off variant 1)	17.3 nM	15.9 nM	
UAUUAGCAAGCACGAUCCCACAUGAGGAUCACCCAUGUGCUCGUCUUAUAAGGUACUGUGACGAAAGUCACGGUACC [Sensor 3, v1 - 94] (puzzle: Sensor v3, turn-off variant 1)			apparent KD of MS2 coat protein [1]: 64.2 nM; apparent KD of MS2 coat protein [2]: 847 nM; apparent KD of MS2 coat protein [3]: 75.9 nM
UAUUAGCAAGCAUGAUCCCACAUGAGGAUCACCCAUGUGCUCGUCUUAUAAGGUACUGUGACGAAAGUCACGGUACC [Sensor 3, v1 - 97] (puzzle: Sensor v3, turn-off variant 1)			apparent KD of MS2 coat protein [1]: 195 nM; apparent KD of MS2 coat protein [2]: 89.4 nM; apparent KD of MS2 coat protein [3]: 218 nM
UAUUAGCAAGCGAGAUCCCACAUGAGGAUCACCCAUGUAACAUCCAGAAUUACUGGGUGCAAAGCUCGUCUUAUAUA [Winner reversed engineered 3] (Eterna round: R97, puzzle: Sensor, turn-off variant 1)	434 nM	496 nM	
UAUUAGCAAGCGAGAUCCCACAUGAGGAUCACCCAUGUAAGCAUCCAGAAUUACUGGGUGCAAAAGCUCGUCUUAUA [Winner reversed engineered 5] (Eterna round: R97, puzzle: Sensor, turn-off variant 1)	29.7 nM	31 nM	
UAUUAGCAAGCGAGAUCCCACAUGAGGAUCACCCAUGUGCUCGUCGCAUCCAGAAUUACUGGGUGCGCUCGUCUUAU [Winner reversed engineered 15] (Eterna round: R97, puzzle: Sensor, turn-off variant 1)	23.8 nM	23.7 nM	
UAUUAGCAAGCGAGAUCCCACAUGAGGAUCACCCAUGUGCUCGUCUUAUAAAGUACUGUGACGAAAGUCACGGUACA [Sensor 3, v1 - 91 v3] (Eterna round: R97, puzzle: Sensor, turn-off variant 1)	14.3 nM	12.8 nM	
UAUUAGCAAGCGAGAUCCCACAUGAGGAUCACCCAUGUGCUCGUCUUAUAAAGUACUGUGACGAAAGUCACGGUACG [Mat - Sensor, turn-off var - Eli Mod - D10] (Eterna round: R97, puzzle: Sensor, turn-off variant 1)	15.1 nM	14.6 nM	
UAUUAGCAAGCGAGAUCCCACAUGAGGAUCACCCAUGUGCUCGUCUUAUAAGGUACUGUGACGAUAGUCACGGUACC [Mat - Sensor, turn-off var - Eli Mod - D16] (Eterna round: R97, puzzle: Sensor, turn-off variant 1)	12.9 nM	14.8 nM	
UAUUAGCAAGCGAGUGGGUACAUGAGGAUCACCCAUGUGCUCGUCUUAUAAGGUACUGUGACGAAAGUCACGGUACC [Eli 91 v33] (Eterna round: R97, puzzle: Sensor, turn-off variant 1)	16.1 nM	13.4 nM	
UAUUAGCAAGUAAGGUCCCACAUGAGGAUCACCCAUGUGCUCGUCUCCUCAGGUACGGAGCGGAAGCUCCCGAUAUG [Sensor-V1 #94] (Eterna round: R97, puzzle: Sensor, turn-off variant 1)	87 nM	102 nM	

Sequence	apparent KD of MS2 coat protein (input ligand: FMN 200 uM)	apparent KD of MS2 coat protein (input ligand: none)	other results
UAUUAGCAAGUAAGGUCCCACAUGAGGAUCACCCAUGUGCUCGUCUCCUCAGGUACGGAGUGGAAACUCCCGAUAUG [Sensor-V1 #93] (Eterna round: R97, puzzle: Sensor, turn-off variant 1)	84.7 nM	76 nM	
UAUUAGCAAGUGAGAUCCCACAUGAGGAUCACCCAUGUGCUCGUCUUAUAACGUACUGUGACGAAAGUCACGGUACG [Sensor-V1 #81] (Eterna round: R97, puzzle: Sensor, turn-off variant 1)	52.9 nM	47.2 nM	
UAUUAGCAAGUGAGAUCCCACAUGAGGAUCACCCAUGUGCUCGUCUUAUAACGUACUGUGAGGAAACUCACGGUACG [Sensor-V1 #83] (Eterna round: R97, puzzle: Sensor, turn-off variant 1)	47.6 nM	51.2 nM	
UAUUAGUAAGGAUAUGAGCCGUAGGACGAAAGUCCUACGGCUCAGAAGGUACAUGAGGAUCACCCAUGUUCAUU [Mod of Fisker 5 - Jieux - Exclusion 4] (Eterna round: R97, puzzle: Exclusion 4)	17.7 nM	15.9 nM	
UAUUGCGAGUGAGGAUAUGACAUGAGGAUCACCCAUGUAAAGGGAGUUGGCUAUAUAGCAAGUUUUCAGAAGGCACUACUGUAU [JR_ExcNG2_Sub007] (Eterna round: R96, puzzle: Exclusion NG 2)	114 nM	66.4 nM	apparent KD of MS2 coat protein [4]: 48.8 nM
UAUUUAGCAAGCAGAUCCCACAUGAGGAUCACCCAUGUUCUCUGAAAGUACAGAAUUACUGUACUUGCUCGUCUUAU [Winner reversed engineered 34] (Eterna round: R97, puzzle: Sensor, turn-off variant 1)	210 nM	237 nM	
UCAACGCAAGGAUAUACUUGCGGUGAUGUUCGAAAUCUUCUACUUGAGGAUCACCCAAGUAGAAGGUGCGGUGA [jl-ex2.4.65 ViennaUCT mod] (Eterna round: R97, puzzle: Exclusion 2)	12.8 nM	12.9 nM	
UCAAGUUUAGAGGAUAUAUAAUAUUUAUUAACUAUAGAAGGCUAUACAUGAGGAUCACCCAUGUAUAUUGGGAU [JR_Ex6_Sub066] (Eterna round: R97, puzzle: Exclusion 6)	40.6 nM	26.1 nM	
UCAAUGCGAGGAUAUACGCACAAUUACAUGAGGAUCACCCAUGUCAUGAACUUUGGUAAGGUAGAAGGCGCUCCGU [Eternabot (L1) Solution 13] (Eterna round: R97, puzzle: Exclusion 5)	32.4 nM	41 nM	
UCAAUUUUGACAGGAUAUAGUUUUUGUUUCUCUCUAGAAGGGUCUGUGUACAUGAGGAUCACCCAUGUUCUUCUUAUUUAUAUU [JR_ExcNG1_Sub014] (Eterna round: R96, puzzle: Exclusion NG 1)	28.4 nM	36.7 nM	apparent KD of MS2 coat protein [4]: 28.6 nM
UCACAGUGAGGAUAUUUAAAAUCGGAACCAGUUACCCGGAUGAAGAAGGCACAUGAGGAUCACCCAUGUGGACG [Eternabot (L2) Solution 14] (Eterna round: R97, puzzle: Exclusion 4)	16.7 nM	15.3 nM	
UCACCGCAAGGAUAUACUUGCGGUGAUGCUCGAAACUUUCUACUUGAGGAUCACCCAAGUAGAAGGUGCGGUGA [jl-ex2.4.68 ViennaUCT mod] (Eterna round: R97, puzzle: Exclusion 2)	12.1 nM	13.1 nM	
UCACGGGACUGAGGAUAUACAUCAACCAUGGUUGUAGAAGGCAGAAGGUUGGAUCAUACACUAAACAUGAGGAUCACCCAUGUU [JR_ExcNG1_Sub029] (Eterna round: R96, puzzle: Exclusion NG 1)	17.7 nM	21.6 nM	apparent KD of MS2 coat protein [4]: 16.8 nM
UCACGGGACUGAGGAUAUACAUGAAUUAUUUUUGUAGAAGGCAGAAUGUUAGAUUAUUCACUAUACAUGAGGAUCACCCAUGUU [JR_ExcNG1_Sub022] (Eterna round: R96, puzzle: Exclusion NG 1)			apparent KD of MS2 coat protein [4]: 18.8 nM
UCACGGGAUUGAGGAUAUAUAUGAAUUUUUUUUAUAGAAGGCAAAAUGUUAGAUUAUUCACUAUACAUGAGGAUCACCCAUGUU [JR_ExcBG1_Sub075] (Eterna round: R96, puzzle: Exclusion NG 1)			apparent KD of MS2 coat protein [4]: 20.3 nM
UCACGGGAUUGAGGAUAUAUAUUAAUUUUUACAAUAGAAGGCAAAUUUUUAGUUUUUUCACUUUACAUGAGGAUCACCCAUGUU [JR_ExcBG1_Sub081] (Eterna round: R96, puzzle: Exclusion NG 1)			apparent KD of MS2 coat protein [4]: 20.5 nM
